1 molecule from paper PMC8643683, “Loss of full-length hnRNP R isoform impairs DNA damage response in motoneurons by inhibiting Yb1 recruitment to chromatin” (Nucleic Acids Research, 2021) can be followed below.

The assay has as its target T1, Y-box binding protein 1 (Yb1), endogenous mouse (mouse (endogenous in primary mouse …, UniProt P62960 1-322)).
T1 construct: also called Msy1; source: endogenous, primary mouse motoneuron lysate; endogenous, NSC-34 lysate
Description: co-IP; Yb1 (sc-101198) or γ-H2AX (clone JBW301) immunoprecipitated on protein A or G Dynabeads from whole lysates of NSC-34 cells, 0 Gy or 9 Gy; IP lysis buffer (50 mM Tris-HCl pH 7.4, 140 mM NaCl, 1% Triton X-100) with 1 U Benzonase, overnight at 4°C; western blot. To be noted: partners not purified.

T1 sequence (P62960 whole entry): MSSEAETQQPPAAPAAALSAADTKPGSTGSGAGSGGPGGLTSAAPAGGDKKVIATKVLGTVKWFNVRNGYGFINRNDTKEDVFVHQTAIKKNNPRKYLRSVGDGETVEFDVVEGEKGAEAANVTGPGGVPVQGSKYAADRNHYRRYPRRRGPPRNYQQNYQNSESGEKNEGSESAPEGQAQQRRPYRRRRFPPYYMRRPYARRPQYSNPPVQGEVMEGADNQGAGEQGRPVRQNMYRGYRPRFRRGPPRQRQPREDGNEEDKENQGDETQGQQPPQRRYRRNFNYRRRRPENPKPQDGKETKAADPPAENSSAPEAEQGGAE

B1: hnRNP R-FL (full-length hnRNP R isoform), endogenous (natural protein, mouse (endogenous in NSC-34), UniProt Q8VHM5 1-632, looked up)
chain: MANQVNGNAVQLKEEEEPMDTSSVTHTEHYKTLIEAGLPQKVAERLDEIFQTGLVAYVDLDERAIDALREFNEEGALSVLQQFKESDLSHVQNKSAFLCGVMKTYRQREKQGSKVQESTKGPDEAKIKALLERTGYTLDVTTGQRKYGGPPPDSVYSGVQPGIGTEVFVGKIPRDLYEDELVPLFEKAGPIWDLRLMMDPLSGQNRGYAFITFCGKEAAQEAVKLCDSYEIRPGKHLGVCISVANNRLFVGSIPKNKTKENILEEFSKVTEGLVDVILYHQPDDKKKNRGFCFLEYEDHKSAAQARRRLMSGKVKVWGNVVTVEWADPVEEPDPEVMAKVKVLFVRNLATTVTEEILEKSFSEFGKLERVKKLKDYAFVHFEDRGAAVKAMDEMNGKEIEGEEIEIVLAKPPDKKRKERQAARQASRSTAYEDYYYHPPPRMPPPMRGRGRGGRGGYGYPPDYYGYEDYYDDYYGYDYHDYRGGYEDPYYGYDDGYAVRGRGGGRGGRGAPPPPRGRGAPPPRGRAGYSQRGAPLGPPRGSRGGRGGPAQQQRGRGSRGARGNRGGNVGGKRKADGYNQPDSKRRQTNNQQNWGSQPIAQQPLQQGGDYSGNYGYNNDNQEFYQDTYGQQWK
notes: hnRNP R, mouse, full-length 632-amino acid protein encoded by transcript variant 1, translated from the AUG in exon 2; source: endogenous, NSC-34 lysate
For the molecule B1, the “fold preference of co-precipitation with Yb1 over hnRNP R-ΔN” value is 1.7 fold.
